The record followed here is paper PMC3905715 (Nature Communications, 2013).

To fix the notation:
B1: mouse Rspo2 Fu1–Fu2 (mRspo2Fu1–Fu2, N37 or I39-G144), His10 [mouse] / mouse ZNRF3 ectodomain (K53-L205), biotinylated, immobilised for SPR [modified: biotin at the C-terminal BirA recognition sequence; biotin at the C-terminal BirA … (parent complex)
chain 1: ICKGCLSCSKDNGCSRCQQKLFFFLRREGMRQYGECLHSCPSGYYGHRAPDMNRCARCRIENCDSCFSKDFCTKCKVGFYLHRGRCFDECPDGFAPLDETMECVEG
chain 2: KETAFVEVVLFESSPSGDYTTHTTGLTGRFSRAGAMLSAEGEIVQMHPLGLCNNNDEEDLYEYGWVGVVKLEQPELDPKPCLTVLGKAKRAVQRGATAVIFDVSENPEAIDQLNQGSEDPLKRPVVYVKGADAIKLMNIVNKQKVARARIQHL

The variants in the first assay derive from B1. Briefly: SPR. On the technique in general: In SPR one partner is held on a chip, and binding of the other changes the refractive index at the surface.
On to chain 2 Q45E, for which the equilibrium dissociation constant (Kd) was 5.6 µM.
Same read-out and setting: next, chain 2 M46T: 1.5 µM.

In a further assay the parent is B1. In words: SPR. The source holds these as a separate data set.
chain 2 E57K: the Kd came out at 0.68 µM.

A word on the Kd: it is the concentration at which binding is half-saturated.
